“Also recorded” adds a separate entry of the source. Read-outs that look alike come from different tables or passages of the source. Where no end group is shown, it is not given here.
B1: OA: chicken ovalbumin (Sigma) (protein, UniProt P01012 2-386, looked up)
Ovalbumin: GSIGAASMEFCFDVFKELKVHHANENIFYCPIAIMSALAMVYLGAKDSTRTQINKVVRFDKLPGFGDSIEAQCGTSVNVHSSLRDILNQITKPNDVYSFSLASRLYAEERYPILPEYLQCVKELYRGGLEPINFQTAADQARELINSWVESQTNGIIRNVLQPSSVDSQTAMVLVNAIVFKGLWEKAFKDEDTQAMPFRVTEQESKPVQMMYQIGLFRVASMASEKMKILELPFASGTMSMLVLLPDEVSGLEQLESIINFEKLTEWTSSNVMEERKIKVYLPRMKMEEKYNLTSVLMAMGITDVFSSSANLSGISSAESLKISQAVHAAHAEINEAGREVVGSAEAGVDAASVSEEFRADHPFLFCIKHIATNAVLFFGRCVSP
B2: BP: Porcine myelin basic protein (Lilly) (protein, UniProt P81558 1-171, looked up)
Myelin basic protein: ASQKRPSQRHGSKYLASASTMDHARHGFLPRHRDTGIDSLGRFFGADRGAPKRGSGKDGHHAARTTHYGSLPQKAQHGRPQDENPVVHFFKNIVTPRTPPPSQGKGRGLSLSRFSWGAEGQKPGFGYGGRAPDYKPAHKGLKGAQDAQGTLSKIFKLGGRDSRSGSPMARR

Columns and labels:
adjuvant arthritis [1] = assay type: in vivo, Lewis rats
adjuvant arthritis [2] = system: adjuvant arthritis; parameters: species or system Lewis rats; details: rat, in vivo
adjuvant arthritis [3] = test: Adjuvant-induced model of arthritis, summary statements on prevention and treatment; assay type: in vivo, Lewis rats; details: summary statement
adjuvant arthritis [4] = details: for Development of experimental allergic encephalomyelitis (EAE): arthritogenic doses of CFA (Mb) combined with MBP

| Molecule | Effect on the course of pre-existing arthritis (adjuvant arthritis [1]; rat, in vivo) | Protective effect against induction of adjuvant arthritis (adjuvant arthritis [2]) | Remission of arthritis (adjuvant arthritis [1]; rat, in vivo) | Anti-arthritic activity after storage (adjuvant arthritis [1]; solvated and kept in refrigerator at 4 degrees centigrade for three months) | Prevention and suppression/treatment of arthritis (summary in words) (adjuvant arthritis [3]; listed as MBP) | Prevention and suppression/treatment of arthritis (summary in words) (adjuvant arthritis [3]; listed as pMBP) | Development of experimental allergic encephalomyelitis (EAE) (adjuvant arthritis [4]) | Development of experimental allergic encephalomyelitis (EAE) (adjuvant arthritis [4]; listed as MBP) | A. Number of animals inoculated/number of animals with arthritis (adjuvant arthritis [4]; rat, in vivo) | C. Average day of onset of arthritis (adjuvant arthritis [4]; rat, in vivo) [days] | D. Average duration of symptoms (adjuvant arthritis [4]; rat, in vivo) [days] | Effect of co-inoculation with FCA on arthritis (in words) (adjuvant arthritis [4]; rat, in vivo) | Effect of co-inoculation with FCA on arthritis (in words) (adjuvant arthritis [4]; rat, in vivo, listed as MBP) |
| --- | --- | --- | --- | --- | --- | --- | --- | --- | --- | --- | --- | --- | --- |
| FSWGAEGQR [EAE peptide, EAE peptide derived from MBP, reference compound] | somewhat effective | – | – | – | – | – | – | – | – | – | – | – | – |
| B1 | – | very significant protective effects against induction of adjuvant arthritis; also recorded: protective | – | – | – | – | – | – | – | – | – | – | – |
| B2 | marked effect on the course of the arthritis, reducing the clinical severity of the disease | minimal protective effects that were of limited clinical value | complete remission in all three animals tested | no activity | prevent and suppress arthritis | appear to protect against and to effectively treat pre-existing arthritis clinical symptoms | developed experimental allergic encephalomyelitis (EAE) | All six animals developed EAE | 0/6 | 0 | 0 | did not develop any symptoms of arthritis over a period of 2 months | none had any clinical signs or arthritis |

— patent publication US5942491A (priority 1996, dated 1999)
